The values below come from PMC12564070, “Rapid and Quantitative Detection of TNF-α in Human Tears Using a Portable Electrochemiluminescence-Based Device”.

The target in one data set is TNF-alpha (Homo sapiens, UniProt P01375 77-233). In words: electrochemiluminescence aptasensor (Apt-VSM/ITO electrode); linear 0.1-200 pg/mL, LOD 0.089 pg/mL; Ru luminophore/TPrA; Aptamer immobilized on VSM/ITO electrode, 0.5% BSA block, 0.1 M PBS rinse; binding buffer, pH and temperature not given in the material. As to conditions: protein: commercial; chain copies: 3.

A further data set deals with IL-6 (UniProt P05231 30-212). Put plainly: electrochemiluminescence aptasensor (Apt-VSM/ITO electrode); 1 ng/mL IL-6, interference test; negligible ECL variation; Aptamer immobilized on VSM/ITO electrode, 0.5% BSA block, 0.1 M PBS rinse; binding buffer, pH and temperature not given in the material.
IL-6, sequence (P05231 30-212): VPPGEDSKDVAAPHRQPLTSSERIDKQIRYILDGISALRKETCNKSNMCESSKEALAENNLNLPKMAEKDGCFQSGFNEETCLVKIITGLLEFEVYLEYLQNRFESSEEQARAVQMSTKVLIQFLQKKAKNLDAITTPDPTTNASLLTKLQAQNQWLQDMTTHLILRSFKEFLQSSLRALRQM

TNF-alpha, sequence (P01375 77-233): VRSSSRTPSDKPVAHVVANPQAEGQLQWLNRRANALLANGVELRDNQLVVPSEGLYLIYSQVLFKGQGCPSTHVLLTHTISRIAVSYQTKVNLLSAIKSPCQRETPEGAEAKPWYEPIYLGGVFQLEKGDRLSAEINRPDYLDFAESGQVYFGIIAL

B1: TNF-alpha aptamer (ssDNA)
DNA: GCGCCACTACAGGGGAGCTGCCATTCGAATAGGTGGGCCGC
modifications: amino-modified (end not stated), coupled to GPTMS epoxy groups on VSM/ITO electrode
Consider B1, for which the values for the binding result with TNF-alpha and with IL-6 were “binds” and “no binding”, respectively.
